# From IntAct's records for PubMed 31704776
# B1: Meiotic recombination protein REC114 (Homo sapiens), Q7Z4M0 (parent)
# chain: MAEAGKVPLSLGLTGGEAAEWPLQRYARCIPSNTRDPPGPCLEAGTAPCPTWKVFDSNEESGYLVLTIVISGHFFIFQGQTLLEGFSLIGSKDWLKIVRRVDCLLFGTTIKDKSRLFRVQFSGESKEQALEHCCSCVQKLAQYITVQVPDGNIQELQLIPGPPRATESQGKDSAKSVPRQPGSHQHSEQQQVCVTAGTGAPDGRTSLTQLAQTLLASEELPHVYEQSAWGAEELGPFLRLCLMDQNFPAFVEEVEKELKKLAGLRN
# partner: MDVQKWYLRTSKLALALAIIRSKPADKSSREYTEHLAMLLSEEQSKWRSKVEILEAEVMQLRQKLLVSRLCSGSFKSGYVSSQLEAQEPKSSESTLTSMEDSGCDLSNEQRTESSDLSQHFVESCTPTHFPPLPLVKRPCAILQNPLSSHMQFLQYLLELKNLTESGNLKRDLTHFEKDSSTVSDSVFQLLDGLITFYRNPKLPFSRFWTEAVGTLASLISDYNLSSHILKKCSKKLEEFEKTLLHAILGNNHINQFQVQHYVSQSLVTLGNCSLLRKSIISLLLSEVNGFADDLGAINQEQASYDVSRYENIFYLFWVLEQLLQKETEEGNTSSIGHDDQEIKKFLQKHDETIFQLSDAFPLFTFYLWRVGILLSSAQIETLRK
# Variants of: B1
# Conditions: with mei4_human MEI4, A8MW99
row,Variant,effect of a mutation on the interaction
1,MAEAGKVPLSLGLTGGEAAEWPLQRYARCIPSNTRDPPGPCLEAGTAPCPTWKVFDSNEESGYLVLTIVISGHFFIFQGQTLLEGFSLIGSKDWLKIVRRVDCLLFGTTIKDKSRLFRVQFSGESKEQALEHGCSCVQKLAQYITVQVPDGNIQELQLIPGPPRATESQGKDSAKSVPRQPGSHQHSEQQQVCVTAGTGAPDGRTSLTQLAQTLLASEELPHVYEQSAWGAEELGPFLRLCLMDQNFPAFVEEVEKELKKLAGLRN [C133G],with no effect
